According to patent US11278600B2, “Human alpha-galactosidase variants” (Codexis, Inc., priority 2014, dated 2022):

Experiments:
Format in all cases: biochemical
[1] = HTP-analysis of yeast culture supernatants, no challenge (MUGal hydrolysis); conditions: activity of the variant/activity of Rd3BB (SEQ ID NO: 13)
Outline: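 Activity read as 4-methylumbelliferyl α-D-galactopyranoside hydrolysis: fluorescence (355/448 nm) after sodium carbonate stop, following 30-180 min at 37° C with 2 mM MUGal stock at pH 4.6–4.8. Enzyme source is unchallenged culture supernatant of INVSc1 yeast expressing GLA variants, grown 66-84 h at 30° C.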

[2] = HTP-analysis of supernatants pretreated with acid (MUGal hydrolysis); conditions: activity of the variant/activity of Rd3BB (SEQ ID NO: 13); challenge at pH 3.7
Outline: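 GLA variants were secreted from INVSc1 yeast grown 66-84 h at 30° C. in SD-Ura with 2% glucose; supernatants were mixed with McIlvaine buffer pH 3.3-4.3 and held at 37° C. for 1-3 h. Residual activity on MUGal at pH 4.8 was then measured by fluorescence.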

[3] = HTP-analysis of supernatants pretreated with base (MUGal hydrolysis); conditions: activity of the variant/activity of Rd3BB (SEQ ID NO: 13); challenge at pH 9.7
Outline: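 Fluorescence of released 4-MU (Ex 355 nm, Em 448 nm) after carbonate quench reports MUGal hydrolysis by GLA variants secreted from INVSc1 yeast. Before the acidic (pH 4.3-4.8) 30-180 min reaction at 37° C, supernatants had been pre-incubated at pH 7.0-9.7 for 1-18 h at 37° C.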

Molecule	Relative Activity of GLA Variants After No Challenge (NC) [1]	Relative Activity of GLA Variants After Challenge at pH 3.7 [2]	Relative Activity of GLA Variants After Challenge at pH 9.7 [3]
601 (protein, Synthetic Polypeptide sequence of Variant No. 601 of mature Human GLA) LDNGLARTPTMGWLHWERFMCNLDCQEEPDSCISEKLFCEMAERMVSEGWKDAGYEYLCIDDCWMAPQRDSEGRLQADPQRFPHGIRQLANHVHSKGLKLGIYADVGNKTCAGFPGSFGYYDIDAQTFADWGVDLLKFDGCYCDSLENLADGYKHMSLALNRTGRSIVYSCEWPLYMWPFQKPNYTEIRQYCNHWRNFADIDDSWASIKSILDWTSRNQERIVDVAGPGGWNDPDMLVIGNFGLSWDQQVTQMALWAIMAAPLFMSNDLRHISPQAKALLQDKDVIAINQDPLGKQGYQLRKGDNFEVWERPLSGDAWAVAIINRQEIGGPRSYTIPVASLGKGVACNPACFITQLLPVKRQLGFYNWTSRLKSHINPTGTVLLQLENTMQMSLKDLL	− (− = <1.5 relative activity to Rd3BB (SEQ ID NO: 13))	+ (+ = 1.5 to 5 relative activity over Rd3BB (SEQ ID NO: 13))	+ (+ = 1.5 to 5 relative activity over Rd3BB (SEQ ID NO: 13))
606 (protein, Synthetic Polypeptide sequence of Variant No. 606 of mature Human GLA) LDNGLARTPPMGWLHWERFMCNLDCQEEPDSCISEKLFMEMAERMVSEGWKDAGYEYLCIDDCWMAPQRDSEGRLQADPQRFPHGIRQLANHVHSKGLKLGIYADVGNKTCAGFPGSFGYYDIDAQTFADWGVDLLKFDGCYCDSLENLADGYKHMSLALNRTGRSIVYSCEWPLYMWPFQKPNYTEILQYCNHWRNFADIDDSWASIKSILDWTSRNQERIVDVAGPGGWNDPDMLVIGNFGLSWDQQVTQMALWAIMAAPLFMSNDLRHISPQAKALLQDKDVIAINQDPLGKQGYQLRKGDNFEVWERPLSGDAWAVAIINRQEIGGPRSYTIPVASLGKGVACNPACFITQLLPVKRQLGFYNWTSRLKSHINPTGTVLLQLENTMQMSLKDLL	+ (+ = 1.5 to 5 relative activity over Rd3BB (SEQ ID NO: 13))	+++ (+++ = >10 relative activity over Rd3BB (SEQ ID NO: 13))	++ (++ = >5 to 10 relative activity over Rd3BB (SEQ ID NO: 13))
603 (protein, Synthetic Polypeptide sequence of Variant No. 603 of mature Human GLA) LDNGLARTPTMGWLHWERFMCNLDCQEEPDSCISEKLFREMAERMVSEGWKDAGYEYLCIDDCWMAPQRDSEGRLQADPQRFPHGIRQLANHVHSKGLKLGIYADVGNKTCAGFPGSFGYYDIDAQTFADWGVDLLKFDGCYCDSLENLADGYKHMSLALNRTGRSIVYSCEWPLYMWPFQKPNYTEIRQYCNHWRNFADIDDSWASIKSILDWTSRNQERIVDVAGPGGWNDPDMLVIGNFGLSWDQQVTQMALWAIMAAPLFMSNDLRHISPQAKALLQDKDVIAINQDPLGKQGYQLRKGDNFEVWERPLSGDAWAVAIINRQEIGGPRSYTIPVASLGKGVACNPACFITQLLPVKRQLGFYNWTSRLKSHINPTGTVLLQLENTMQMSLKDLL	+ (+ = 1.5 to 5 relative activity over Rd3BB (SEQ ID NO: 13))	+ (+ = 1.5 to 5 relative activity over Rd3BB (SEQ ID NO: 13))	+ (+ = 1.5 to 5 relative activity over Rd3BB (SEQ ID NO: 13))
607 (protein, Synthetic Polypeptide sequence of Variant No. 607 of mature Human GLA) LDNGLARLPTMGWLHWERFMCNLDCQEEPDSCISEKLFMEMAERMVSEGWKDAGYEYLCIDDCWMAPQRDSEGRLQADPQRFPHGIRQLANHVHSKGLKLGIYADVGNKTCAGFPGSFGYYDIDAQTFADWGVDLLKFDGCYCDSLENLADGYKHMSLALNRTGRSIVYSCEWPLYMWPFQKPNYTEIRQYCNHWRNFADIDDSWASIKSILDWTSRNQERIVDVAGPGGWNDPDMLVIGNFGLSWDQQVTQMALWAIMAAPLFMSNDLRHISPQAKALLQDKDVIAINQDPLGKQGYQLRKGDNFEVWERPLSGDAWAVAIINRQEIGGPRSYTIPVASLGKGVACNPACFITQLLPVKRQLGFYNWTSRLKSHINPTGTVLLQLENTMQMSLKDLL	+ (+ = 1.5 to 5 relative activity over Rd3BB (SEQ ID NO: 13))	+ (+ = 1.5 to 5 relative activity over Rd3BB (SEQ ID NO: 13))	++ (++ = >5 to 10 relative activity over Rd3BB (SEQ ID NO: 13))
602 (protein, Synthetic Polypeptide sequence of Variant No. 602 of mature Human GLA) LDNGLARTPTMGWLHWERFMCNLDCQEEPDSCISEKLFEEMAERMVSEGWKDAGYEYLCIDDCWMAPQRDSEGRLQADPQRFPHGIRQLANHVHSKGLKLGIYADVGNKTCAGFPGSFGYYDIDAQTFADWGVDLLKFDGCYCDSLENLADGYKHMSLALNRTGRSIVYSCEWPLYMWPFQKPNYTEIRQYCNHWRNFADIDDSWASIKSILDWTSRNQERIVDVAGPGGWNDPDMLVIGNFGLSWDQQVTQMALWAIMAAPLFMSNDLRHISPQAKALLQDKDVIAINQDPLGKQGYQLRKGDNFEVWERPLSGDAWAVAIINRQEIGGPRSYTIPVASLGKGVACNPACFITQLLPVKRQLGFYNWTSRLKSHINPTGTVLLQLENTMQMSLKDLL	+ (+ = 1.5 to 5 relative activity over Rd3BB (SEQ ID NO: 13))	+ (+ = 1.5 to 5 relative activity over Rd3BB (SEQ ID NO: 13))	++ (++ = >5 to 10 relative activity over Rd3BB (SEQ ID NO: 13))
605 (protein, Synthetic Polypeptide sequence of Variant No. 605 of mature Human GLA) LDNGLARTPPMGWLHWERFMCNLDCQEEPDSCISEKLFMEMAERMVSEGWKDAGYEYLCIDDCWMAPQRDSEGRLQADPQRFPHGIRQLANHVHSKGLKLGIYADVGNKTCAGFPGSFGYYDIDAQTFADWGVDLLKFDGCYCDSLENLADGYKHMSLALNRTGRSIVYSCEWPLYMWPFQKPNYTEIRQYCNHWRNFADIDDSWASIKSILDWTSRNQERIVDVAGPGGWNDPDMLVIGNFGLSWDQQVTQMALWAIMAAPLFMSNDLRHISPQAKALLQDKDVIAINQDPLGKQGYQLRKGDNFEVWERPLSGDAWAVAIINRQEIGGPRSYTIPVASLGKGVACNPACFITQLLPVKRQLGFYNWTSRLKSHINPTGTVLLQLENTMQMSLKDLL	+ (+ = 1.5 to 5 relative activity over Rd3BB (SEQ ID NO: 13))	+++ (+++ = >10 relative activity over Rd3BB (SEQ ID NO: 13))	++ (++ = >5 to 10 relative activity over Rd3BB (SEQ ID NO: 13))
522 (protein, Synthetic Polypeptide sequence of Variant No. 522 of mature Human GLA) LDNGLARTPTMGWLHWERFMCNLDCQEEPDSCISEKLFMEMAERMVSEGWKDAGYKYLCIDDCWMAPQRDSEGRLQADPQRFPHGIRQLANHVHSKGLKLGIYADVGNKTCAGFPGSFGYYDIDAQTFADWGVDLLKFDGCYCDSLENLADGYKHMSLALNRTGRSIVYSCEWPLYMWPFQKPNYTEIRQYCNHWRNFADIDDSWASIKSILDWTSRNQERIVDVAGPGGWNDPDMLVIGNFGLSWDQQVTQMALWAIMAAPLFMSNDLRHISPQAKALLQDKDVIAINQDPLGKQGYQLRKGDNFEVWERPLSGDAWAVAIINRQEIGGPRSYTIPVASLGKGVACNPACFITQLLPVKRQLGFYNWTSRLKSHINPTGTVLLQLENTMQMSLKDLL	+ (+ = 1.5 to 5 relative activity over Rd3BB (SEQ ID NO: 13))	+++ (+++ = >10 relative activity over Rd3BB (SEQ ID NO: 13))	++ (++ = >5 to 10 relative activity over Rd3BB (SEQ ID NO: 13))
604 (protein, Synthetic Polypeptide sequence of Variant No. 604 of mature Human GLA) LDNGLARTPTMGWLHWERFMCNLDCQEEPDSCISEKLFVEMAERMVSEGWKDAGYEYLCIDDCWMAPQRDSEGRLQADPQRFPHGIRQLANHVHSKGLKLGIYADVGNKTCAGFPGSFGYYDIDAQTFADWGVDLLKFDGCYCDSLENLADGYKHMSLALNRTGRSIVYSCEWPLYMWPFQKPNYTEIRQYCNHWRNFADIDDSWASIKSILDWTSRNQERIVDVAGPGGWNDPDMLVIGNFGLSWDQQVTQMALWAIMAAPLFMSNDLRHISPQAKALLQDKDVIAINQDPLGKQGYQLRKGDNFEVWERPLSGDAWAVAIINRQEIGGPRSYTIPVASLGKGVACNPACFITQLLPVKRQLGFYNWTSRLKSHINPTGTVLLQLENTMQMSLKDLL	+ (+ = 1.5 to 5 relative activity over Rd3BB (SEQ ID NO: 13))	+ (+ = 1.5 to 5 relative activity over Rd3BB (SEQ ID NO: 13))	++ (++ = >5 to 10 relative activity over Rd3BB (SEQ ID NO: 13))
